Reference: PMC3293901, “Identification, Purification and Characterization of Laterosporulin, a Novel Bacteriocin Produced by Brevibacillus sp. Strain GI-9” (PLoS ONE, 2012)

Key:
E. coli [1] = experiment: Growth inhibition assay of the synthetic partial peptide; assay type: cell-based; conditions: custom synthesized 19-mer, indicator strain E. coli
From the text: (§1) The molecular mass observed for laterosporulin by MALDI-TOF was 5605.8 Da ( Fig. 3 ), which is in good agreement with mass obtained by gel filtration chromatography ( Fig. 2A ). The N-terminal sequence of laterosporulin yielded partial sequence of ^1A(M)Q(C)QG(C/Q)PDAISGWTHTDYQCH^19 for two independently processed samples. The uncertainties at the 1st, 2nd and 4th positions obtained in N-terminal sequences were considered to predict the antibacterial activity of each possible peptide sequence using a database of peptides with known antimicrobial potency. […] To confirm the antimicrobial activity of this partial peptide, it was custom synthesized, mass was confirmed by MALDI-TOF and the synthetic peptide was examined in growth inhibition assays using indicator strains B. subtilis and E. coli.
(§2) To evaluate antibacterial function of the N-terminal peptide, a 19-mer peptide representing the N-terminal sequence of the bioactive protein was synthesized using standard Fmoc-chemistry on 2-chlorotrityl resin (0.2 mmol/g). Synthesis was carried out on a semi-automated synthesizer (PS-II) (Protein Technologies Inc., AZ USA). It was cleaved with TFA and purified by RP-HPLC system (Dionex, Ultimate-3000) using C-18 analytical column. The purified peptide was subjected to MALDI-TOF analysis for confirmation of molecular mass.

B. subtilis = experiment: as above; assay type: cell-based; conditions: custom synthesized 19-mer, indicator strain B. subtilis
From the text: as §1, §2

[2] = tested on: Gram-positive and Gram-negative bacteria; experiment: Antibacterial spectrum; assay type: cell-based; conditions: wide range of Gram-positive and Gram-negative bacteria
Procedure: (§3) The CFB of strain GI-9 was used to determine the antimicrobial activity. Culture was grown for 48 hours in nutrient broth (NB, Himedia) and subsequently cells were removed by centrifugation (10,000 rpm for 10 min, 4°C). The supernatant obtained was filtered by using 0.22 µm filter (Millipore). The filtrate was diluted by two fold dilution and amounts of 100 µl of different dilutions were used to test the activity. These dilutions were added to the wells that are prepared in plates containing nutrient agar medium seeded with test organism. Above test was also performed using minimal medium to check influence of the medium components on antimicrobial activity. A growth curve up to 24 hours was prepared for strain GI-9 to examine the bacteriocin production at different stages. One unit of bacteriocin was defined as the […] dilution that was given an inhibition zone around the well and reciprocal of this dilution is defined as the unit of antimicrobial activity per ml.
The MIC of bacteriocin for different strains was evaluated by using a microtiter plate dilution assay. […] The first column of the microtiter plate was left as a blank while reading through an ELISA plate reader (Thermo Scientific). The microtiter plates were incubated at 30°C incubator and OD was measured at 600 nm at different time intervals.

E. coli [3] = experiment: Bactericidal effect by scanning electron microscopy; assay type: cell-based; conditions: 500 µg/ml purified peptide, 4 hours, 37°C, about 2×10^7 cells/ml; compared to untreated bacteria
Procedure: To examine the bactericidal activity, E.coli cells were grown in NB to an exponential phase, harvested by centrifugation. The pellet obtained was resuspended in fresh NB and aliquots of 5 ml containing about 2×10^7 cells/ml were incubated at 37°C for 4 hours with 500 µg/ml laterosporulin. Samples at 0, 2 and 4 hours interval were centrifuged and pellets were resuspended in 500 µl of phosphate buffer. Each sample was spread on a poly (L-lysine)-coated glass slides (18×18 mm) to immobilize bacterial cells and incubated at 30°C for 90 min. They were fixed with modified Karnovsky's fixative and dehydrated with a graded ethanol series.

L. monocytogenes = experiment: Growth inhibition of test strain; assay type: cell-based; conditions: test strain L. monocytogenes (MTCC 839)
Procedure: as §3

[4] = Heat stability, residual antimicrobial activity; assay type: physicochemical; conditions: 120°C for 15 min
Procedure: (§4) The sensitivity of the purified bacteriocin towards different pH, temperature and proteases was evaluated. To determine pH and temperature resistance, the purified peptide was incubated at different pH values between 2.0–12.0 and temperatures 80, 100°C for 30 min and 120°C for 15 min. Different hydrolytic enzymes including pepsin, trypsin, chymotrypsin, proteinase K, pronase E and amylase were incubated with bacteriocin for 6 hours at 37°C to ensure their effect. The enzyme activity was terminated by heating at 80°C before the bacteriocin activity was confirmed.

B.subtilis = experiment: MIC, microtiter plate dilution assay; assay type: cell-based; conditions: purified laterosporulin, micro-titer plates, triplicates, 30°C, OD 600 nm, 48 h
Procedure: (§5) The MIC of bacteriocin for different strains was evaluated by using a microtiter plate dilution assay. Test strains were grown to logarithmic phase under optimal conditions (up to 0.3 OD) and the test was performed in triplicates. Each well of the microtiter plate was added with 200 µl of fresh nutrient medium and 50 µl of test strains in different rows. Subsequently, different dilutions (50 µl) of freshly prepared bacteriocin were added to each well. The first column of the microtiter plate was left as a blank while reading through an ELISA plate reader (Thermo Scientific). The microtiter plates were incubated at 30°C incubator and OD was measured at 600 nm at different time intervals.

S. aureus = experiment: MIC, microtiter plate dilution assay; assay type: cell-based; conditions: purified laterosporulin, micro-titer plates, triplicates, 30°C, OD 600 nm, 48 h
Procedure: as §5

[5] = Treatment with dithiothreitol, residual antimicrobial activity; assay type: physicochemical; conditions: DTT used to disrupt disulfide bonds; data not shown
pepsin = experiment: Resistance to proteolytic enzyme, residual antimicrobial activity; assay type: in vitro ADME; conditions: 6 hours at 37°C, enzyme terminated by heating at 80°C
Procedure: as §4

pronase E = experiment: as above; assay type: in vitro ADME; conditions: 6 hours at 37°C, enzyme terminated by heating at 80°C
Procedure: as §4

chymotrypsin = experiment: as above; assay type: in vitro ADME; conditions: 6 hours at 37°C, enzyme terminated by heating at 80°C
Procedure: as §4

trypsin = experiment: as above; assay type: in vitro ADME; conditions: 6 hours at 37°C, enzyme terminated by heating at 80°C
Procedure: as §4

proteinase K = proteinase K (Parengyodontium album, UniProt P06873); experiment: as above; assay type: in vitro ADME; conditions: 6 hours at 37°C, enzyme terminated by heating at 80°C
Procedure: as §4

[6] = pH stability, residual antimicrobial activity; assay type: physicochemical
Procedure: as §4

Chain of proteinase K (P06873 106-384): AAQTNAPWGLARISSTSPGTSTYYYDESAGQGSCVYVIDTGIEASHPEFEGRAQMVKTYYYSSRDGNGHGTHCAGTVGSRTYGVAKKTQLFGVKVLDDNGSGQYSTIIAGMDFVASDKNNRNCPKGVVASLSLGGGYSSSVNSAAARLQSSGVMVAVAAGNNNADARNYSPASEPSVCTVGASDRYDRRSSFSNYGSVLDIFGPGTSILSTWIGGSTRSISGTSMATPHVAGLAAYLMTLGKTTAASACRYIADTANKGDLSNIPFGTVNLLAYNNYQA

| Substance | antimicrobial activity (E. coli [1]) | antimicrobial activity (B. subtilis) | antibacterial activity [2] | bactericidal effect, cell morphology by SEM (E. coli [3]) | growth inhibition (L. monocytogenes) | heat stability (antimicrobial activity after exposure) [4] | MIC (sensitivity in words, values only in Fig. 4) (B.subtilis) | MIC (sensitivity in words, values only in Fig. 4) (S. aureus) | antimicrobial activity after treatment with dithiothreitol (DTT) [5] | antimicrobial activity after incubation with pepsin (pepsin) | antimicrobial activity after incubation with pronase E (pronase E) | antimicrobial activity after incubation with chymotrypsin (chymotrypsin) | antimicrobial activity after incubation with trypsin (trypsin) | antimicrobial activity after incubation with proteinase K (proteinase K) | pH stability (antimicrobial activity after incubation) ([6]; above pH 10 (tested up to 12.0)) | pH stability (antimicrobial activity after incubation) ([6]; pH between 2.0 to 10.0) |
| --- | --- | --- | --- | --- | --- | --- | --- | --- | --- | --- | --- | --- | --- | --- | --- | --- |
| ACQCPDAISGWTHTDYQCH | weak antimicrobial activity at significantly higher concentration | weak antimicrobial activity at significantly higher concentration | – | – | – | – | – | – | – | – | – | – | – | – | – | – |
| ^1A(M)Q(C)QG(C/Q)PDAISGWTHTDYQCH^19 [laterosporulin, 5.6 kDa bacteriocin purified from culture supernatant of Brevibacillus sp. strain GI-9] | – | – | active | significant modifications in cell shape and morphology | could inhibit the growth | no reduction in antimicrobial activity | highly sensitive | highly sensitive | did not affect | did not show any reduction | did not show any reduction | did not show any reduction | did not show any reduction | did not show any reduction | reduced significantly | no reduction in antimicrobial activity |
